B1: FAM189A2 (parent)
chain: NLAGFILGCQGAQFVSSVPRCDLV

Variants of: B1
Test: protein stability index of a GFP-peptide fusion (GPS, HEK-293T) (PSI 1-6); higher = more stable
Settings: c terminus: a fixed tail appended
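Note: lentivirally expressed fusions sorted by FACS into six bins by GFP to DsRed ratio, PSI derived from sequencing read proportions per bin multiplied by bin number.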

Variant | protein stability index
NLAGFILGCQGAQFVLSVPRCDLV [S16L] | 2.34
NLAGFILGCQGAQFVNSVPRCDLV [S16N] | 1.72
NLAGFILGCQGAQFVRSVPRCDLV [S16R] | 2.89
NLAGFILGCQGAQFVTSVPRCDLV [S16T] | 2.23
NLAGFILGCQGAQFVWSVPRCDLV [S16W] | 3.86
NLAGFILGCQGAQFVYSVPRCDLV [S16Y] | 4.96
NLAGFILGCQGAQFVSDVPRCDLV [S17D] | 1.72
NLAGFILGCQGAQFVSEVPRCDLV [S17E] | 2.31
NLAGFILGCQGAQFVSHVPRCDLV [S17H] | 3.37
NLAGFILGCQGAQFVSIVPRCDLV [S17I] | 1.39
NLAGFILGCQGAQFVSKVPRCDLV [S17K] | 2.33
NLAGFILGCQGAQFVSMVPRCDLV [S17M] | 1.47
NLAGFILGCQGAQFVSQVPRCDLV [S17Q] | 2.31
NLAGFILGCQGAQFVSRVPRCDLV [S17R] | 2.1
NLAGFILGCQGAQFVSTVPRCDLV [S17T] | 1.97
NLAGFILGCQGAQFVSWVPRCDLV [S17W] | 3.85
NLAGFILGCQGAQFVSYVPRCDLV [S17Y] | 3.35
NLAGFILGCQGAQFVSSCPRCDLV [V18C] | 2.83
NLAGFILGCQGAQFVSSDPRCDLV [V18D] | 2.55
NLAGFILGCQGAQFVSSEPRCDLV [V18E] | 1.05
NLAGFILGCQGAQFVSSFPRCDLV [V18F] | 2.54
NLAGFILGCQGAQFVSSGPRCDLV [V18G] | 1.61
NLAGFILGCQGAQFVSSIPRCDLV [V18I] | 3.42
NLAGFILGCQGAQFVSSKPRCDLV [V18K] | 1.99

Variant | protein stability index
NLAGFILGCQGAQFVSSLPRCDLV [V18L] | 2.27
NLAGFILGCQGAQFVSSMPRCDLV [V18M] | 3.72
NLAGFILGCQGAQFVSSNPRCDLV [V18N] | 2.59
NLAGFILGCQGAQFVSSPPRCDLV [V18P] | 2.8
NLAGFILGCQGAQFVSSRPRCDLV [V18R] | 1.78
NLAGFILGCQGAQFVSSSPRCDLV [V18S] | 2.4
NLAGFILGCQGAQFVSSTPRCDLV [V18T] | 1.68
NLAGFILGCQGAQFVSSYPRCDLV [V18Y] | 2.68
NLAGFILGCQGAQFVSSVARCDLV [P19A] | 3.01
NLAGFILGCQGAQFVSSVCRCDLV [P19C] | 3.7
NLAGFILGCQGAQFVSSVFRCDLV [P19F] | 3.04
NLAGFILGCQGAQFVSSVHRCDLV [P19H] | 3.01
NLAGFILGCQGAQFVSSVMRCDLV [P19M] | 1.45
NLAGFILGCQGAQFVSSVNRCDLV [P19N] | 3.15
NLAGFILGCQGAQFVSSVQRCDLV [P19Q] | 2.65
NLAGFILGCQGAQFVSSVRRCDLV [P19R] | 2.56
NLAGFILGCQGAQFVSSVTRCDLV [P19T] | 3.3
NLAGFILGCQGAQFVSSVPDCDLV [R20D] | 3.39
NLAGFILGCQGAQFVSSVPECDLV [R20E] | 1.96
NLAGFILGCQGAQFVSSVPFCDLV [R20F] | 2.19
NLAGFILGCQGAQFVSSVPGCDLV [R20G] | 3.08
NLAGFILGCQGAQFVSSVPHCDLV [R20H] | 3.48
NLAGFILGCQGAQFVSSVPICDLV [R20I] | 2.15
NLAGFILGCQGAQFVSSVPKCDLV [R20K] | 2.1

Variant | protein stability index
NLAGFILGCQGAQFVSSVPLCDLV [R20L] | 1.87
NLAGFILGCQGAQFVSSVPMCDLV [R20M] | 2.91
NLAGFILGCQGAQFVSSVPPCDLV [R20P] | 2.2
NLAGFILGCQGAQFVSSVPQCDLV [R20Q] | 1.45
NLAGFILGCQGAQFVSSVPYCDLV [R20Y] | 1.75
NLAGFILGCQGAQFVSSVPRADLV [C21A] | 2.57
NLAGFILGCQGAQFVSSVPRDDLV [C21D] | 2.33
NLAGFILGCQGAQFVSSVPRFDLV [C21F] | 2.92
NLAGFILGCQGAQFVSSVPRHDLV [C21H] | 2.54
NLAGFILGCQGAQFVSSVPRKDLV [C21K] | 3.12
NLAGFILGCQGAQFVSSVPRMDLV [C21M] | 2.81
NLAGFILGCQGAQFVSSVPRNDLV [C21N] | 2.79
NLAGFILGCQGAQFVSSVPRQDLV [C21Q] | 2.07
NLAGFILGCQGAQFVSSVPRRDLV [C21R] | 1.64
NLAGFILGCQGAQFVSSVPRSDLV [C21S] | 1.68
NLAGFILGCQGAQFVSSVPRTDLV [C21T] | 2.56
NLAGFILGCQGAQFVSSVPRCCLV [D22C] | 2.27
NLAGFILGCQGAQFVSSVPRCELV [D22E] | 1.18
NLAGFILGCQGAQFVSSVPRCFLV [D22F] | 2.58
NLAGFILGCQGAQFVSSVPRCGLV [D22G] | 1.75
NLAGFILGCQGAQFVSSVPRCILV [D22I] | 2.13
NLAGFILGCQGAQFVSSVPRCKLV [D22K] | 2.59
NLAGFILGCQGAQFVSSVPRCMLV [D22M] | 2.78
NLAGFILGCQGAQFVSSVPRCNLV [D22N] | 3.21

Variant | protein stability index
NLAGFILGCQGAQFVSSVPRCPLV [D22P] | 3.08
NLAGFILGCQGAQFVSSVPRCVLV [D22V] | 2.39
NLAGFILGCQGAQFVSSVPRCDCV [L23C] | 3.66
NLAGFILGCQGAQFVSSVPRCDDV [L23D] | 2.45
NLAGFILGCQGAQFVSSVPRCDFV [L23F] | 3.42
NLAGFILGCQGAQFVSSVPRCDGV [L23G] | 1.28
NLAGFILGCQGAQFVSSVPRCDIV [L23I] | 2.33
NLAGFILGCQGAQFVSSVPRCDKV [L23K] | 1.94
NLAGFILGCQGAQFVSSVPRCDNV [L23N] | 2.75
NLAGFILGCQGAQFVSSVPRCDPV [L23P] | 2.98
NLAGFILGCQGAQFVSSVPRCDRV [L23R] | 1.58
NLAGFILGCQGAQFVSSVPRCDSV [L23S] | 1.93
NLAGFILGCQGAQFVSSVPRCDWV [L23W] | 3.69
NLAGFILGCQGAQFVSSVPRCDYV [L23Y] | 2.52
NLAGFILGCQGAQFVSSVPRCDLA [V24A] | 1.72
NLAGFILGCQGAQFVSSVPRCDLC [V24C] | 3.68
NLAGFILGCQGAQFVSSVPRCDLD [V24D] | 1.76
NLAGFILGCQGAQFVSSVPRCDLE [V24E] | 2.23
NLAGFILGCQGAQFVSSVPRCDLF [V24F] | 2.58
NLAGFILGCQGAQFVSSVPRCDLH [V24H] | 3.38
NLAGFILGCQGAQFVSSVPRCDLI [V24I] | 2.26
NLAGFILGCQGAQFVSSVPRCDLK [V24K] | 1.82
NLAGFILGCQGAQFVSSVPRCDLP [V24P] | 2.59

— the supplement of paper PMC10567573
